Experimental data from patent publication US20200405759A1 (UCL BUSINESS, published 2020).

Biological target: T1, human ROR1-Fz domain with Q(261)H and I(254)V (human, UniProt Q01973 165-299)
T1 construct: domain: Fz; it is not clear whether the construct was Fz only or a longer ROR1
Assay: antibody binding to point mutants of human ROR1, FIG. 7

T1 sequence (Q01973 165-299 I254V/Q261H): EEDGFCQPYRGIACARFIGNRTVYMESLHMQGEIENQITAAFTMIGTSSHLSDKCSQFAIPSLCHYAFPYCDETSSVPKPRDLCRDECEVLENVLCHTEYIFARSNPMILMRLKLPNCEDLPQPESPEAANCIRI

binding result: no binding
B1: Clone F anti-ROR1 antibody (whole immunoglobulin) (antibody, V domains shown)
VH: EVQLVESGGGLVQPGRSLKLSCAASGFIFSEHNMAWVRQAPKKGLEWVATISDDGRNTYYRDSMRGRFTISRENARSTLYLQLDSLRSEDTATYYCASHRYNLFDSWGQGVMVTVSS
VL: DIQMTQSPSFLSASVGDRVTINCKASQNIDRYLNWYQQKLGEAPKRLLYNTNKLQTGIPSRFSGSGSATDFTLTISSLQPEDFATYFCLQYNSLPLTFGSGTKLEIK
notes: Rat variable domains; also called clone F antibody
